In article doi:10.1101/2020.01.06.896597 (bioRxiv, 2020):

Experiments:
[1] = biological target: the molecule itself; assay: cryo-EM 2D class averages
[2] = biological target: the molecule itself; assay: cryo-EM structure

Protein	stoichiometry N [1]	stoichiometry N [2]
ACAT1-ΔNTD (domain or fragment, human, UniProt P35610 111-550, looked up) DLRAPPEQGKIFIARRSLLDELLEVDHIRTIYHMFIALLILFILSTLVVDYIDEGRLVLEFSLLSYAFGKFPTVVWTWWIMFLSTFSVPYFLFQHWATGYSKSSHPLIRSLFHGFLFMIFQIGVLGFGPTYVVLAYTLPPASRFIIIFEQIRFVMKAHSFVRENVPRVLNSAKEKSSTVPIPTVNQYLYFLFAPTLIYRDSYPRNPTVRWGYVAMKFAQVFGCFFYVYYIFERLCAPLFRNIKQEPFSARVLVLCVFNSILPGVLILFLTFFAFLHCWLNAFAEMLRFGDRMFYKDWWNSTSYSNYYRTWNVVVHDWLYYYAYKDFLWFFSKRFKSAAMLAVFAVSAVVHEYALAVCLSFFYPVLFVLFMFFGMAFNFIVNDSRKKPIWNVLMWTSLFLGNGVLLCFYSQEWYARQHCPLKNPTFLDYVRPRSWTCRYVF	2	
full-length (FL) human ACAT1 (enzyme, UniProt P35610 1-550, looked up) MVGEEKMSLRNRLSKSRENPEEDEDQRNPAKESLETPSNGRIDIKQLIAKKIKLTAEAEELKPFFMKEVGSHFDDFVTNLIEKSASLDNGGCALTTFSVLEGEKNNHRAKDLRAPPEQGKIFIARRSLLDELLEVDHIRTIYHMFIALLILFILSTLVVDYIDEGRLVLEFSLLSYAFGKFPTVVWTWWIMFLSTFSVPYFLFQHWATGYSKSSHPLIRSLFHGFLFMIFQIGVLGFGPTYVVLAYTLPPASRFIIIFEQIRFVMKAHSFVRENVPRVLNSAKEKSSTVPIPTVNQYLYFLFAPTLIYRDSYPRNPTVRWGYVAMKFAQVFGCFFYVYYIFERLCAPLFRNIKQEPFSARVLVLCVFNSILPGVLILFLTFFAFLHCWLNAFAEMLRFGDRMFYKDWWNSTSYSNYYRTWNVVVHDWLYYYAYKDFLWFFSKRFKSAAMLAVFAVSAVVHEYALAVCLSFFYPVLFVLFMFFGMAFNFIVNDSRKKPIWNVLMWTSLFLGNGVLLCFYSQEWYARQHCPLKNPTFLDYVRPRSWTCRYVF		4
